Key:
[1] = molecular target: T1, AMH3647-19 (Dog sequence) (Dog); test: competition ELISA, AMH-coated plate
T1 peptide: GLLFQPDWDWPP
Method: (§1) 1. AMH antigen was diluted with carbonic acid buffer (20 mmol/L CB, pH 9.6) and then coated on a polyvinyl chloride plate. In the pretreatment, the antibody purified by the protein A column and the synthesized short peptides with different human AMH36-47 amino acid mutations (see Table 6 for each synthesized sequence) were subjected to proportion incubation (100 ng/ml antibody: 50 ug/ml truncated antigen) for 30 minutes, that were test samples; the control sample was (100 ng/ml antibody: PBS) and incubated for 30 minutes, and then the test samples after incubation and the control sample were added to AMH antigen plate and incubated for 30 minutes, the plate was washed for 5 times, added with GAM-HRP (1/5000 dilution) and incubated for 30 minutes, the plate was washed for 5 times, and the substrate was added and incubated for 15 minutes. The values under wavelength of 450/620 were read by microplate reader, and the detected OD values were finally calculated and analyzed. The calculation formula was: (control sample OD value−test sample OD value)/control sample OD value, and the criterion for determination was as follows: 90% or more, which represented that there was cross-reaction.

[2] = molecular target: T2, AMH3647-22 (Mouse sequence) (Mouse); test: competition ELISA, AMH-coated plate
T2 peptide: GLIFLEDELWPP
Method: as §1

[3] = molecular target: T3, AMH3647-23 (Cattle sequence) (Cattle); test: competition ELISA, AMH-coated plate
T3 peptide: ALIFQQAWDWPL
Method: as §1

[4] = molecular target: T4, AMH3647-25 (Horse sequence) (Horse); test: competition ELISA, AMH-coated plate
T4 peptide: GLIFHQDWDWPP
Method: as §1

[5] = molecular target: T5, AMH truncated antigen 31-44 (human); test: competition ELISA, antibody preincubated with target, AMH-coated plate
T5 sequence (peptide): AVGTSGLIFREDLD

[6] = molecular target: T6, AMH truncated antigen 36-44 (human); test: as above
T6 sequence (peptide): GLIFREDLD

[7] = molecular target: T7, AMH truncated antigen 37-43 (human); test: as above
T7 sequence (peptide): LIFREDL

[8] = molecular target: T8, AMH truncated antigen 38-44 (human); test: as above
T8 sequence (peptide): IFREDLD

[9] = molecular target: T9, AMH truncated antigen 39-45 (human); test: as above
T9 sequence (peptide): FREDLDW

[10] = molecular target: T10, AMH truncated antigen 41-47 (human); test: as above
T10 sequence (peptide): EDLDWPP

[11] = molecular target: T11, AMH truncated antigen 41-50 (human); test: as above
T11 sequence (peptide): EDLDWPPGSP

[12] = molecular target: T12, AMH truncated antigen 41-51 (human); test: as above
T12 sequence (peptide): EDLDWPPGSPQ

[13] = molecular target: T13, AMH truncated antigen 41-55 (human); test: as above
T13 sequence (peptide): EDLDWPPGSPQEPLC

[14] = molecular target: T14, AMH truncated antigen 42-50 (human); test: as above
T14 sequence (peptide): DLDWPPGSP

[15] = molecular target: T15, AMH truncated antigen 42-51 (human); test: as above
T15 sequence (peptide): DLDWPPGSPQ

[16] = molecular target: T16, AMH truncated antigen 61-75 (human); test: as above
T16 sequence (peptide): GDSNGSSSPLRVVGA

[17] = molecular target: T17, AMH3647-14 (Little mole rat sequence) (Little mole rat); test: as above
T17 sequence (peptide): GLIFLQDGMWSP

[18] = molecular target: T18, AMH3647-21 (Sheep sequence) (Sheep); test: as above
T18 sequence (peptide): TLIFQQGWDWPL

[19] = molecular target: T19, AMH3647-26 (Monkey sequence) (Monkey); test: as above
T19 sequence (peptide): GLIFREDLGWPP

[20] = molecular target: T20, AMH3647-5 (Diademed Sifaka sequence) (Diademed Sifaka); test: as above
T20 sequence (peptide): GLIFHEDWDWPP

[21] = molecular target: T21, human AMH36-47 short peptide, mutation site 36 (human); test: as above
T21 peptide: ALIFREDLDWPP
Method: as §1, with “mutations” for “mutations (see Table 6 for each synthesized sequence)”, “follows: a value lower than” for “follows:”, “indicated the corresponding amino acid” for “or more, which represented that there”, “a key amino acid, and the mutation has a great impact on the reaction of antibody.” for “cross-reaction.”

[22] = molecular target: T22, human AMH36-47 short peptide, mutation site 37 (human); test: as above
T22 peptide: GAIFREDLDWPP
Method: as §1, with “mutations” for “mutations (see Table 6 for each synthesized sequence)”, “follows: a value lower than” for “follows:”, “indicated the corresponding amino acid” for “or more, which represented that there”, “a key amino acid, and the mutation has a great impact on the reaction of antibody.” for “cross-reaction.”

[23] = molecular target: T23, human AMH36-47 short peptide, mutation site 39 (human); test: as above
T23 peptide: GLIAREDLDWPP
Method: as §1, with “mutations” for “mutations (see Table 6 for each synthesized sequence)”, “follows: a value lower than” for “follows:”, “indicated the corresponding amino acid” for “or more, which represented that there”, “a key amino acid, and the mutation has a great impact on the reaction of antibody.” for “cross-reaction.”

[24] = molecular target: T24, human AMH36-47 short peptide, mutation site 41 (human); test: as above
T24 peptide: GLIFRADLDWPP
Method: as §1, with “mutations” for “mutations (see Table 6 for each synthesized sequence)”, “follows: a value lower than” for “follows:”, “indicated the corresponding amino acid” for “or more, which represented that there”, “a key amino acid, and the mutation has a great impact on the reaction of antibody.” for “cross-reaction.”

[25] = molecular target: T25, human AMH36-47 short peptide, mutation site 44 (human); test: as above
T25 peptide: GLIFREDLAWPP
Method: as §1, with “mutations” for “mutations (see Table 6 for each synthesized sequence)”, “follows: a value lower than” for “follows:”, “indicated the corresponding amino acid” for “or more, which represented that there”, “a key amino acid, and the mutation has a great impact on the reaction of antibody.” for “cross-reaction.”

[26] = molecular target: T26, human AMH36-47 short peptide, mutation site 46 (human); test: as above
T26 peptide: GLIFREDLDWAP
Method: as §1, with “mutations” for “mutations (see Table 6 for each synthesized sequence)”, “follows: a value lower than” for “follows:”, “indicated the corresponding amino acid” for “or more, which represented that there”, “a key amino acid, and the mutation has a great impact on the reaction of antibody.” for “cross-reaction.”

[27] = molecular target: T27, human AMH36-47 short peptide, mutation site 47 (human); test: as above
T27 peptide: GLIFREDLDWPA
Method: as §1, with “mutations” for “mutations (see Table 6 for each synthesized sequence)”, “follows: a value lower than” for “follows:”, “indicated the corresponding amino acid” for “or more, which represented that there”, “a key amino acid, and the mutation has a great impact on the reaction of antibody.” for “cross-reaction.”

binding result [1]: no binding (tested: 50 ug/ml peptide) | binding result [2]: no binding (tested: 50 ug/ml peptide) | binding result [3]: no binding (tested: 50 ug/ml peptide) | binding result [4]: no binding (tested: 50 ug/ml peptide) | percent inhibition [5]: 38% | percent inhibition [6]: 32% | percent inhibition [7]: 57% | percent inhibition [8]: 33% | percent inhibition [9]: 68% | percent inhibition [10]: 64% | percent inhibition [11]: 65% | percent inhibition [12]: 71% | percent inhibition [13]: 68% | percent inhibition [14]: 57% | percent inhibition [15]: 60% | percent inhibition [16]: 35% | percent inhibition [17]: 29% | percent inhibition [18]: 10% | percent inhibition [19]: 61% | percent inhibition [20]: 32% | percent inhibition [21]: 100% | percent inhibition [22]: 97% | percent inhibition [23]: 9% | percent inhibition [24]: 7% | percent inhibition [25]: 64% | percent inhibition [26]: 99% | percent inhibition [27]: 99%
B1: monoclonal antibody C9F2-2 (antibody, V domains shown)
VH: EVQLVESGGGLVKPGGSLKLSCAASGFAFSTYDMSWVRQTPEKRLEWVAYISPGGGATYYPDTVKGRFTISRDNAKNTLYLQMTSLKSEDTAMYYCAGRRDYYGMDYWGQGTSVTVSS
VL: DVVMTQTPLSLPVSLGDQASISCRSSQSLVHSNGNTYLHWYLQKPGQSPKLLIYKVSNRFSGVPDRFSGSGSGTDFTLKISRVEAEDLGVYFCSQSTHVPWTFGGGTKLEIK
notes: Mouse hybridoma antibody purified from ascites; the tie is indirect; also called hybridoma CCTCC NO: C2018183

— patent US20220146515A1 (XIAMEN INNODX BIOTECH, published 2022)
